According to publication PMC5983490, “White-rot basidiomycetes Junghuhnia nitida and Steccherinum bourdotii: Oxidative potential and laccase properties in comparison with Trametes hirsuta and Coriolopsis caperata” (PLoS ONE, 2018):
Read-outs that look alike come from different tables or passages of the source. Blank lines part the entries; values can stand above or below the molecule they belong to.

Experiments:
[1] = system: JnL (Junghuhnia nitida laccase); settings: read-out: Steccherinaceae group / JnL; 0.1 M McIlvaine buffer pH 4.5, 25 °C
[2] = system: SbL (Steccherinum bourdotii laccase); settings: read-out: Steccherinaceae group / JnL; 0.1 M McIlvaine buffer pH 4.5, 25 °C
[3] = system: T1, JnL (Junghuhnia nitida laccase); assay: oxygen consumption, Clark-type electrode, non-linear fit; assay type: biochemical; settings: 0.1 M citrate-phosphate buffer pH 4.5, 25 °C; read-out: Steccherinaceae group / JnL
T1 construct: peptides most similar to S. murashkinskyi laccase 2 / A. faginea laccase A
Source text: oxygen consumption, Clark-type electrode, non-linear fit on JnL (Junghuhnia nitida laccase)

[4] = system: T2, SbL (Steccherinum bourdotii laccase); assay: as above; assay type: biochemical; settings: 0.1 M citrate-phosphate buffer pH 4.5, 25 °C; read-out: Steccherinaceae group / SbL
T2 construct: peptides most similar to S. murashkinskyi laccase 2 / A. faginea laccase A
Source text: oxygen consumption, Clark-type electrode, non-linear fit on SbL (Steccherinum bourdotii laccase)

[5] = system: JnL (Junghuhnia nitida laccase); settings: read-out: Steccherinaceae group / JnL; 0.1 M McIlvaine buffer pH 4.5, 25 °C; remark: listed apart in the source
[6] = system: T2, SbL (Steccherinum bourdotii laccase); assay: spectrophotometric oxidation, […] nm, non-linear fit; assay type: biochemical; settings: 0.1 M McIlvaine buffer pH 4.5, 25 °C; read-out: Steccherinaceae group / SbL
[7] = system: T1, JnL (Junghuhnia nitida laccase); assay: spectrophotometric oxidation, […] nm, non-linear fit; assay type: biochemical; settings: 0.1 M McIlvaine buffer pH 4.5, 25 °C; read-out: Steccherinaceae group / JnL
[8] = system: T2, SbL (Steccherinum bourdotii laccase); assay: spectrophotometric oxidation, […] nm, non-linear fit; assay type: biochemical; settings: 0.1 M McIlvaine buffer pH 4.5, 25 °C; read-out: Steccherinaceae group / SbL; remark: listed apart in the source
[9] = system: T1, JnL (Junghuhnia nitida laccase); assay: spectrophotometric oxidation, […] nm, non-linear fit; assay type: biochemical; settings: 0.1 M McIlvaine buffer pH 4.5, 25 °C; read-out: Steccherinaceae group / JnL; remark: listed apart in the source
[10] = system: T2, SbL (Steccherinum bourdotii laccase); assay: spectrophotometric oxidation, […] nm, non-linear fit; assay type: biochemical; settings: 0.1 M McIlvaine buffer pH 4.5, 25 °C; read-out: Steccherinaceae group / SbL; remark: listed apart in the source
[11] = system: T2, SbL (Steccherinum bourdotii laccase); assay: spectrophotometric oxidation, […] nm, non-linear fit; assay type: biochemical; settings: 0.1 M McIlvaine buffer pH 4.5, 25 °C; read-out: Steccherinaceae group / SbL; remark: listed apart in the source
[12] = system: T1, JnL (Junghuhnia nitida laccase); assay: spectrophotometric oxidation, […] nm, non-linear fit; assay type: biochemical; settings: 0.1 M McIlvaine buffer pH 4.5, 25 °C; read-out: Steccherinaceae group / JnL; remark: listed apart in the source
[13] = substrate: COc1cc([C@@H]2OC[C@@H]3[C@H]2CO[C@H]3c2ccc(O)c(OC)c2)ccc1O; assay: oxygen consumption, Clark-type electrode, non-linear fit; assay type: biochemical, Trametes hirsuta; settings: 0.1 M citrate-phosphate buffer pH 4.5, 25 °C
Source text: oxygen consumption, Clark-type electrode, non-linear fit on ThL (Trametes hirsuta laccase)

purified protein [14] = substrate: COc1cccc(OC)c1O; assay: purified protein; assay type: biochemical, Trametes hirsuta; settings: 0.1 M McIlvaine buffer pH 4.5, 25 °C
purified protein [15] = substrate: COc1cc(/C=C/C(=O)O)cc(OC)c1O; assay: purified protein; assay type: biochemical, Trametes hirsuta; settings: 0.1 M McIlvaine buffer pH 4.5, 25 °C
[16] = substrate: COc1cc(/C=C/C(=O)O)ccc1O; assay: purified protein, by the assay type; set-up: Laccase substrate oxidation kinetics, spectrophotometric initial rates, 25 °C, McIlvaine buffer pH 4.5; settings: 25.0 °C
Description: (§1) Kinetic constants were measured spectrophotometrically using a PerkinElmer Lambda 35 spectrophotometer (USA) at 25°C. […] 10 μl of enzyme solution at a concentration of 1 mg·ml^-1 (50 mM potassium phosphate buffer pH 6.5) was added to 2 ml substrate solution in 0.1 M McIlvaine buffer, pH 4.5. The reaction rate was measured by monitoring of the absorbance change during 3 min. […] It is interesting that syringyl-type substrates like 2,6-DMP, sinapic acid and syringaldazine were better in terms of Km and kcat/Km values for JnL and SbL compared to CcL and ThL.

[17] = substrate: O=C(O)c1cc(O)c(O)c(O)c1; assay: purified protein, by the assay type; set-up: Laccase substrate oxidation kinetics, spectrophotometric initial rates, 25 °C, McIlvaine buffer pH 4.5; settings: 25.0 °C
Description: as §1

[18] = substrate: COc1cc(C=NN=Cc2cc(OC)c(O)c(OC)c2)cc(OC)c1O; assay: purified protein, by the assay type; set-up: Laccase substrate oxidation kinetics, spectrophotometric initial rates, 25 °C, McIlvaine buffer pH 4.5; settings: 25.0 °C
Description: as §1

[19] = substrate: Oc1ccccc1O; assay: purified protein, by the assay type; set-up: Laccase substrate oxidation kinetics, spectrophotometric initial rates, 25 °C, McIlvaine buffer pH 4.5; settings: 25.0 °C
Description: as §1

[20] = substrate: COc1ccccc1O; assay: purified protein, by the assay type; set-up: Laccase substrate oxidation kinetics, spectrophotometric initial rates, 25 °C, McIlvaine buffer pH 4.5; settings: 25.0 °C
Description: as §1

purified protein [21] = substrate: COc1cc(C=NN=Cc2cc(OC)c(O)c(OC)c2)cc(OC)c1O; assay: purified protein; assay type: biochemical, Cerrena caperata; settings: 0.1 M McIlvaine buffer pH 4.5, 25 °C
purified protein [22] = substrate: COc1cc(/C=C/C(=O)O)cc(OC)c1O; assay: purified protein; assay type: biochemical, Cerrena caperata; settings: 0.1 M McIlvaine buffer pH 4.5, 25 °C
purified protein [23] = substrate: COc1cc(/C=C/C(=O)O)ccc1O; assay: purified protein; settings: 0.1 M McIlvaine buffer pH 4.5, 25 °C
[24] = substrate: COc1cccc(OC)c1O; assay: purified protein, by the assay type; set-up: Laccase substrate oxidation kinetics, spectrophotometric initial rates, 25 °C, McIlvaine buffer pH 4.5; settings: 25.0 °C
Description: as §1

Km [3]: 89 ± 12 µM
Km [4]: 149 ± 22 µM
Molecule: COc1cc([C@@H]2OC[C@@H]3[C@H]2CO[C@H]3c2ccc(O)c(OC)c2)ccc1O [Pinoresinol]

Km [7]: 9 ± 1 µM
Km [8]: 8 ± 1 µM
Molecule: COc1cc(/C=C/C(=O)O)cc(OC)c1O [Sinapic acid]

Km [9]: 2 ± 0.4 µM
Km [10]: 1 ± 0.3 µM
Molecule: COc1cc(C=NN=Cc2cc(OC)c(O)c(OC)c2)cc(OC)c1O [Syringaldazine]

Km [11]: 8 ± 1 µM
Km [12]: 7 ± 1 µM
Molecule: COc1cccc(OC)c1O [2,6-DMP]

Continued, molecule first:

Molecule: CCn1c(=NN=c2sc3cc(S(=O)(=O)O)ccc3n2CC)sc2cc(S(=O)(=O)O)ccc21 [ABTS]
Km [1]: 17 ± 2 µM
Km [2]: 17 ± 2 µM

Molecule: COc1cc(/C=C/C(=O)O)ccc1O [Ferulic acid]
Km [5]: 19 ± 1 µM
Km [6]: 19 ± 2 µM

B1: ThL (Trametes hirsuta laccase) (Trametes hirsuta) (protein)
chain: AVGPVADLTITDAAVSPDGFSRQAVVVNGVTPGPLVAGNIGDRFQLNVIDNLTNHTMLKSTSIHWHGFFQHGTNWADGPAFINQCPISPGHSFLYDFQVPDQAGTFWYHSHLSTQYCDGLRGPFVVYDPNDPHASRYDVDNDDTVITLADWYHTAAKLGPRFPGGADATLINGKGRAPSDSPAELSVIKVTKGKRYRFRLVSLSCNPNHTFSIDGHNLTIIEVDSVNSQPLEVDSIQIFAAQRYSFVLDANQAVDNYWIRANPNFGNVGFDGGINSAILRYDGAPAVEPTTNQTTSVKPLNEVDLHPLVSTPVPGSPSSGGVDKAINMAFNFNGSNFFINGASFVPPTVPVLLQILSGAQTAQDLLPSGSVYVLPSNASIEISFPATAAAPGAPHPFHLHGHTFAVVRSAGSTVYNYDNPIFRDVVSTGTPAAGDNVTIRFDTNNPGPWFLHCHIDFHLEGGFAVVMAEDTPDVKAVNPVPQAWSDLCPTYDALDPNDQ
Km [13]: 61 ± 8 µM
kcat [13]: 73 ± 3 s⁻¹
kcat/Km [13]: 1.2e+06 M⁻¹ s⁻¹
Km (purified protein [14]): 24 ± 2 µM
kcat (purified protein [14]): 128 ± 11 s⁻¹
kcat/Km (purified protein [14]): 5.33e+06 M⁻¹ s⁻¹
Km (purified protein [15]): 13 ± 1 µM
kcat (purified protein [15]): 317 ± 23 s⁻¹
kcat/Km (purified protein [15]): 2.44e+07 M⁻¹ s⁻¹
Km [16]: 28 µM
kcat [16]: 270 ± 25 s⁻¹
kcat/Km [16]: 9.64e+06 M⁻¹ s⁻¹
Km [17]: 223 µM
kcat [17]: 58 ± 3 s⁻¹
kcat/Km [17]: 260000 M⁻¹ s⁻¹
Km [18]: 34 µM
kcat [18]: 131 ± 10 s⁻¹
kcat/Km [18]: 3.85e+06 M⁻¹ s⁻¹
Km [19]: 183 µM
kcat [19]: 302 ± 27 s⁻¹
kcat/Km [19]: 1.65e+06 M⁻¹ s⁻¹
Km [20]: 173 µM
kcat [20]: 162 ± 10 s⁻¹
kcat/Km [20]: 976000 M⁻¹ s⁻¹

B2: CcL (Coriolopsis caperata laccase) (Cerrena caperata) (protein)
chain: GIGPVTDLTISDGPVSPDGFTRQAILVNNQFPSPLITGNKGDRFQLNVIDNMNNHTMLKSTSIHWHGFFQHGTNWADGPAFVNQCPISPGHSFLYDFQVPDQAGTFWYHSHLSTQYCDGLRGPIVVYDPQDPHKDLYDVDDDSTVITLADWYHLAAKVGPAVPTADATLINGLGRSISTLNADLAVISVTKGKRYRFRLVSLSCDPNHTFSIDGHTMTVIEADSVNLKPQVVDSIQIFAAQRYSFVLNADQDIGNYWIRAMPNSGTRNFDGGVNSAILRYDGADPVEPTTTQTPSSQPLVESALTTLEGTAAPGSPTAGGVDLAINMAFGFAGGRFTINGASFTPPTVPVLLQILSGAQNAQDLLPTGSVYSLPANADIEISLPATAAAPGFPHPFHLHGHTFAVVRSAGSSTYNYANPVYRDVVSTGSPGDNVTIRFRTDNPGPWFLHCHIDFHLEAGFAVVMAEDIPDVAAVNPVPQAWSDLCPTYNALDPNDQ
Km (purified protein [21]): 5 ± 0.3 µM
kcat (purified protein [21]): 122 ± 2 s⁻¹
kcat/Km (purified protein [21]): 2.44e+07 M⁻¹ s⁻¹
Km (purified protein [22]): 17 ± 2 µM
kcat (purified protein [22]): 324 ± 31 s⁻¹
kcat/Km (purified protein [22]): 1.91e+07 M⁻¹ s⁻¹
Km (purified protein [23]): 20 ± 2 µM
kcat (purified protein [23]): 234 s⁻¹
kcat/Km (purified protein [23]): 1.17e+07 M⁻¹ s⁻¹
Km [24]: 65 µM
kcat [24]: 121 ± 8 s⁻¹
kcat/Km [24]: 1.86e+06 M⁻¹ s⁻¹
Km [17]: 129 µM
kcat [17]: 55 ± 2 s⁻¹
kcat/Km [17]: 434000 M⁻¹ s⁻¹
Km [19]: 815 µM
kcat [19]: 269 ± 6 s⁻¹
kcat/Km [19]: 330000 M⁻¹ s⁻¹
Km [20]: 696 µM
kcat [20]: 165 ± 12 s⁻¹
kcat/Km [20]: 237000 M⁻¹ s⁻¹
